Measured values from the supplement of paper PMC9170038.

Tested on: MS2 coat protein
Assay: apparent KD of MS2 coat protein; designed switch direction (-1 OFF switch, 1 ON switch): -1; higher = weaker reporter binding
Outline: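 Normalised cluster fluorescence was curve-fitted, and each design's median over clusters is its apparent KD. Before this, SNAP-549-labelled MS2 coat protein was titrated from 0.7 or 1.5 nM, doubling to 3 µM, over RNA switches transcribed on Illumina chips by stalled E. coli RNA polymerase. Titrations had no input, 200 uM small-molecule ligand, or an oligonucleotide input, and steps lasted 0.8–1.5 h (lowest) to 10–20 min (highest).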

[1] = input ligand: microRNA oligo, concentration not stated
[2] = Eterna round: R95, input ligand: FMN 200 uM
[3] = Eterna round: R95, input ligand: microRNA oligo, concentration not stated
[4] = Eterna round: R95, input ligand: none

Sequence	apparent KD of MS2 coat protein (input ligand: FMN 200 uM) [nM]	apparent KD of MS2 coat protein (input ligand: none) [nM]	apparent KD of MS2 coat protein [1] [nM]	apparent KD of MS2 coat protein [2] [nM]	apparent KD of MS2 coat protein [3] [nM]	apparent KD of MS2 coat protein [4] [nM]
AGAUAACAUGAGGAUCACCCAUGUGAGGAUAUUUACUCAAGAGCUUCGGCUCUCAGGUGAAGAAGGCGCAAUGA [EX1 #55] (Eterna round: R97, puzzle: Exclusion 1)	44.7	45.7	–	–	–	–
GAUCGCAUAGUCAGGAUAUCGAAGUAUCGGGACCGCGAGAAGGGACAUGAGGAUCACCCAUGUUUCAUGGGAAG [Riesaratce] (Eterna round: R97, puzzle: Brourd's mod of Exclusion 4)	182	113	–	–	–	–
AAUAACAAGCAAGAUCCUAACAUGAGGAUCACCCAUGUGCUCGUCUUGUAAAGUACUAUCACGAAAGUGAUAGUACA [Sensor 3, v1 - 48] (Eterna round: R96, puzzle: Sensor v3, turn-off variant 1)	22.3	25.5	437	–	–	–
GAAAAGGUAGGAUAUACGAUAAGAAAGGGUAGAGAAUAAACACAUGAGGAUCACCCAUGUAGAAGGACCAAAAG [salish99_ex2_r3_101] (puzzle: Exclusion 2)	–	–	–	148	30	26
AAGAGUGCAGGAUAUACUUGGUAGGGUAAGAUGAGUGAGGGACAUGAGGAUCACCCAUGUAGAAGGGCAGAGAG [JR_Exclu2_Sub057] (puzzle: Exclusion 2)	–	–	–	33.1	35.1	26.7
UACAAUAAGGAGGAUAUCGUAUCGGAAACGAUACGAGAAGGCUUAACAUGAGGAUCACCCAUGUUCUUCAAUAU [Mat - Exclusion 6 - Eli Mod - D97] (puzzle: Exclusion 6)	–	–	–	18.7	15.2	15.6
GUAGAGUAAGGAUAUGGUGAAUAGGAUAGAAUGGUUAGAAACCAGAAGGUACAUGAGGAUCACCCAUGUAAUGU [Excluse me!!!! 16 - Jieux - Exclusion 4] (puzzle: Exclusion 4)	–	–	–	–	20.2	–
GGAGUCUUAGGAUAUACAGGUGUGAACAUCCGACGUUUCCAACAUGAGGAUCACCCAUGUAGAAGGAAGACGAG [Eternabot (Original) Solution 5] (Eterna round: R97, puzzle: Exclusion 2)	824	783	–	–	–	–
GCGCCAUCGUGAGAUGGCGUAACUACAUGAGGAUCACCCAUGUAGGAUAUCGAUUGCUUUGCAGUCGAGAAGGGCGAGGGAUUU [JL ENG3 3.89] (Eterna round: R96, puzzle: Exclusion NG 3)	18.1	17.6	13.2	–	–	–
ACAUGAGGAUCACCCAUGUGCACGUAAUGGCUCAUGUAGAGAGAGGAUAUGCGUGACGAACGAGCGCAGAAGGCUCAAGACUGG [Deportation 15 - Jieux - Exclusion NG 3] (Eterna round: R96, puzzle: Exclusion NG 3)	114	73.1	66.2	–	–	–
UAUUAGUAAGGAUAUGAGUCGUAGAACGAAAGUACUACGUCUCAGAAGGUACAUGAGGAUCACCCAUGUUCAUU [Mod of Fisker 3 - Jieux - Exclusion 4] (Eterna round: R97, puzzle: Exclusion 4)	21.8	13.5	–	–	–	–
GCAACUACGGAUCUCAUCAACAUGAGGAUCACCCAUGUAGAAUGCGUACAAGCUUUUUGUUCUGGCAUCCCAUAGUC [Eternabot (L2) Solution 35] (Eterna round: R97, puzzle: Sensor, turn-off variant 1)	63	65.3	–	–	–	–
GGUGCGUUUGUGAGGAUAUGCUGGUCCUUGGAUCAGCAGAAGGCACAUGAGGAUCACCCAUGUGGUGUCGUCCC [salish99_Bmod_Ex4_041] (puzzle: Brourd's mod of Exclusion 4)	–	–	–	–	210	–
AAACGGCGGAUCGUGGCUUUUUGCUCGUCUUGUGCUACAACAUGAGGAUCACCCAUGUAGAGGUGAUCCGUUGUAAA [Grok-var2-18 mod JAL] (puzzle: Sensor v3, turn-off variant 2)	–	–	–	28	17.1	38.3
AGGUUGUGAGGAUAUUAGUUAUAUGUUUGGAGGUGUAUGGCUGAGAAGGCACAUGAGGAUCACCCAUGUAGAUC [JR_Ex4_Sub049] (Eterna round: R97, puzzle: Exclusion 4)	301	175	–	–	–	–
UUUUGGCAUGUAGGAUAUGGGUCCGAUUAGGAUUUAGAAGGACAUGAGGAUCACCCAUGUGCCCUUAAUUGGUCUUUUUUUUUU [EXclNG1-LROPPY17] (Eterna round: R96, puzzle: Exclusion NG 1)	55.8	44.4	35.3	–	–	–
ACAAGCUUUGUUGUGGGUGACAUGAGGAUCACCCAUGUUUGCCGCGUCUUGUGGGCCCGGGCCCGCGGCCCGGGCCC [-42.5, -64.4, A 12%] (Eterna round: R97, puzzle: Sensor, turn-off variant 1)	202	173	–	–	–	–

Sequence	apparent KD of MS2 coat protein (input ligand: FMN 200 uM) [nM]	apparent KD of MS2 coat protein (input ligand: none) [nM]	apparent KD of MS2 coat protein [1] [nM]	apparent KD of MS2 coat protein [2] [nM]	apparent KD of MS2 coat protein [3] [nM]	apparent KD of MS2 coat protein [4] [nM]
ACAUGACUGCUAGGAUAUAGAUGACAUGAGGAUCACCCAUGUUGUCCCAUGUUUAUGGAAACGGACUAGAAGGAGCAGUAUAUG [Ex NG2 #13] (Eterna round: R96, puzzle: Exclusion NG 2)	18.8	20.2	26.2	–	–	–
ACAUGAGGAUCACCCAUGUAGACAGCUGCAACCGGUGAAAGACAGGAUAUGUGACGGCACAGGGAACAGAAGGGUCAAAGAAAA [Ceatasoes] (Eterna round: R96, puzzle: Exclusion NG 3)	21.2	30.9	22	–	–	–
UAAUAGUCAGGAUAUACAUGAGGAUCACCCAUGUAGAAAUGAACCUGGGUUCUCCUAGGUAGAAGGGACAAAAG [Geerqu] (puzzle: Exclusion 3)	–	–	–	28.7	22.7	24.1
CAUACUAAAGUCAGGAUAUGCGGCCGAAUACGGGUGUAGAAGGGACAUGAGGAUCACCCAUGUAGAUAGUAAAG [EX-4 Malc #17] (puzzle: Brourd's mod of Exclusion 4)	–	–	–	29.1	23.1	22.2
UCUAGACAUGAGGAUCACCCAUGUGAGGAUAUGAUGCGAUCGUCGAAAGACGAUAGCAUCAGAAGGCACAAAUG [Fiskers Ex 1 - 12] (puzzle: Exclusion 1)	–	–	–	153	56.9	69.9
AGAGUGUGAGGAUAUAUGGUAAAAGUGAAGAGAGAGGAGGAGUAGAAGGUACAUGAGGAUCACCCAUGUUUGGA [JR_Exclu4_Sub074] (puzzle: Exclusion 4)	–	–	–	–	38.1	–
GGAGAGGUAGGAUAUGGACCUUAGAACAUGAGGAUCACCCAUGUAGGACCACAUGAAAUGCCAGAAGGACCAGUCC [AK-MS2ROC-r4-exclusion5-5] (Eterna round: R97, puzzle: Exclusion 5)	153	145	–	–	–	–
CAUUACUACAAGCUAAGGGACAUGAGGAUCACCCAUGUUCGUCUUAUUGAUCUAGGUACGCUGACGUACCUAGAUCU [JL-sv1-2.23 Brourd mod] (puzzle: Sensor v3, turn-off variant 1)	–	–	–	15.8	20.1	14.6
AACCUAUGAGGAUAUACAUGAGGAUCACCCAUGUGUGAGCGUAUCUCAUCACCAAAUUGUAGAAGGCAUGGCGG [Eternabot (L1) Solution 38] (Eterna round: R97, puzzle: Exclusion 3)	68.3	41.4	–	–	–	–
CUGAGCAGACGGAGAUCCAACAUGAGGAUCACCCAUGUCUCAAAAGCUUUUUGCUCGUCUUAUCCUCCUCUGCUCAC [Geesbeleri] (puzzle: Sensor v3, turn-off variant 1)	–	–	–	11.2	21.8	12.5
GCUUAACAUGUAGGAUAUGCGUGGCGAAGCUAUGCAGAAGGACAUGAGGAUCACCCAUGUUUUAGCGUCUGCGUACAGAUGCGU [JL ENG1 1.42] (Eterna round: R96, puzzle: Exclusion NG 1)	178	22.4	19.8	–	–	–
AUAAUGUCAGGAUAUCAGUCGUACAGCGAUAGCUGUACGACUGAGAAGGGACAUGAGGAUCACCCAUGUGGUCA [E4/6-A4] (Eterna round: R97, puzzle: Exclusion 4)	13.3	18.1	–	–	–	–
UACAUGAGGAUCACCCAUGUUUUGUCGUGUAUGGUAUUUAUCUAGGAUAUCACUUUAUUUAUUUAUGAGAAGGAGAAUAUUAAU [JMF's solution 8] (Eterna round: R96, puzzle: Exclusion NG 3)	34.2	37.9	27.1	–	–	–
AGCAGACGAGGAUAUAGAUUUGUUGACAUGAGGAUCACCCAUGUGAUCGAUCUAUCAUAUUUAGAAGGUGUCUGCU [JR_Ex5_Sub041] (Eterna round: R97, puzzle: Exclusion 5)	18.6	14.3	–	–	–	–
UUAAUUAGCAGGCAAGAUCAUUACAUGAGGAUCACCCAUGUCGAGGAUAUCAGCUCGUGUAGAGCUGAGAAGGCGACAGCCUGC [ExNG3/13-A3] (Eterna round: R96, puzzle: Exclusion NG 3)	666	334	207	–	–	–
UGCAGACGAGGAUAUAGAUUUGAUAACAUGAGGAUCACCCAUGUGAUCGAUAGAUCAGAUUUAGAAGGCGUCUGCU [E5/8-A4] (Eterna round: R97, puzzle: Exclusion 5)	586	715	–	–	–	–
